Legend:
[1] = biological target: mouse VEGFR-2/Fc chimeric receptor (mouse) (UniProt P35918); assay: competition plate binding assay: cold competitor against 125I-VEGF165 on immobilized VEGFR-2 (KDR)/Fc, scintillation counting
[2] = biological target: mouse VEGFR-1/Fc chimeric receptor (mouse) (UniProt P35969); assay: competition plate binding assay: cold competitor against 125I-VEGF165 on immobilized VEGFR-1 (Flt-1)/Fc, scintillation counting
[3] = biological target: rat Neuropilin-1/Fc chimeric receptor (rat) (UniProt Q9QWJ9); assay: competition plate binding assay, cold competitor against 125I-VEGF165 on immobilized rat neuropilin-1/Fc, without heparin
Chain of rat Neuropilin-1/Fc chimeric receptor (rat) (Q9QWJ9 22-854, stated change not applied): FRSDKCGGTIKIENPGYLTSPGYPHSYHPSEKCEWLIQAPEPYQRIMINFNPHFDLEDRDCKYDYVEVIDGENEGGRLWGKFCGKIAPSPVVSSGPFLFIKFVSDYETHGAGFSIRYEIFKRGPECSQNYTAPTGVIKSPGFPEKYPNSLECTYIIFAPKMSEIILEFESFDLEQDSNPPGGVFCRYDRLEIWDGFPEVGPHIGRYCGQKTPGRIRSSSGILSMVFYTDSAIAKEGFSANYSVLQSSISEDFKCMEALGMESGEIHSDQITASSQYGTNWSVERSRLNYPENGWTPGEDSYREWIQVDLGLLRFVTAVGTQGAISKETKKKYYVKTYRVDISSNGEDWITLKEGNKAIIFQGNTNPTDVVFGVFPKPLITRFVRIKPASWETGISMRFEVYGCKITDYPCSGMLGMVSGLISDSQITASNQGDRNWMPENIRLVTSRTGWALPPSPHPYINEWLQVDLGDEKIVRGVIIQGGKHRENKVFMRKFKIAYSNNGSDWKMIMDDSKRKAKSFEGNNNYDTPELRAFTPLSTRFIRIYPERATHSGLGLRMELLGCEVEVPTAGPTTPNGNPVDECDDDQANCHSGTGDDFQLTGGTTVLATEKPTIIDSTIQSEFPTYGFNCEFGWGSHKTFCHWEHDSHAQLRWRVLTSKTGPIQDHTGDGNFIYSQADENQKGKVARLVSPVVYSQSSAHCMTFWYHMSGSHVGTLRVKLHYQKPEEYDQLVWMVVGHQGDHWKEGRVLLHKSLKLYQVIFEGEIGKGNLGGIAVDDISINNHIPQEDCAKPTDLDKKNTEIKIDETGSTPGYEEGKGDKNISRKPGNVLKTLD

Chain of mouse VEGFR-1/Fc chimeric receptor (mouse) (P35969 23-759, stated change not applied): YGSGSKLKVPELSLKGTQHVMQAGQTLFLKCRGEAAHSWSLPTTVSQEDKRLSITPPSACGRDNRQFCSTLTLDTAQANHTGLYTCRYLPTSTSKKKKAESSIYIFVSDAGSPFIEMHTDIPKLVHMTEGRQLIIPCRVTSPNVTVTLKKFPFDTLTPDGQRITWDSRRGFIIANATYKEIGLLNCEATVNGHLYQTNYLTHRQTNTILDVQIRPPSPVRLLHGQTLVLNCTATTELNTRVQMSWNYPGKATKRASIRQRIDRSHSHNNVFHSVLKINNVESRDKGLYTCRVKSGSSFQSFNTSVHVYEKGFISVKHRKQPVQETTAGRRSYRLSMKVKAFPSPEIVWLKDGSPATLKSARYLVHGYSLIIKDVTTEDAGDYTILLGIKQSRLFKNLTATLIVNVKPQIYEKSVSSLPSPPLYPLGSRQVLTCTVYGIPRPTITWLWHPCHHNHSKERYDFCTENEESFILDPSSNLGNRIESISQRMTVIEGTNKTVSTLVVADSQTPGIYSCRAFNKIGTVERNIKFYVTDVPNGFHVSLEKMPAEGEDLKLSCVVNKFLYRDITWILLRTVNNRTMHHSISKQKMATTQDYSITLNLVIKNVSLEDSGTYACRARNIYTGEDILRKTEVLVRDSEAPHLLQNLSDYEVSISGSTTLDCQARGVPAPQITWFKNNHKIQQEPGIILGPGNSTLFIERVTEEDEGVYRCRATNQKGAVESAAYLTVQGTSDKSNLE
Chain of mouse VEGFR-2/Fc chimeric receptor (mouse) (P35918 20-762, stated change not applied): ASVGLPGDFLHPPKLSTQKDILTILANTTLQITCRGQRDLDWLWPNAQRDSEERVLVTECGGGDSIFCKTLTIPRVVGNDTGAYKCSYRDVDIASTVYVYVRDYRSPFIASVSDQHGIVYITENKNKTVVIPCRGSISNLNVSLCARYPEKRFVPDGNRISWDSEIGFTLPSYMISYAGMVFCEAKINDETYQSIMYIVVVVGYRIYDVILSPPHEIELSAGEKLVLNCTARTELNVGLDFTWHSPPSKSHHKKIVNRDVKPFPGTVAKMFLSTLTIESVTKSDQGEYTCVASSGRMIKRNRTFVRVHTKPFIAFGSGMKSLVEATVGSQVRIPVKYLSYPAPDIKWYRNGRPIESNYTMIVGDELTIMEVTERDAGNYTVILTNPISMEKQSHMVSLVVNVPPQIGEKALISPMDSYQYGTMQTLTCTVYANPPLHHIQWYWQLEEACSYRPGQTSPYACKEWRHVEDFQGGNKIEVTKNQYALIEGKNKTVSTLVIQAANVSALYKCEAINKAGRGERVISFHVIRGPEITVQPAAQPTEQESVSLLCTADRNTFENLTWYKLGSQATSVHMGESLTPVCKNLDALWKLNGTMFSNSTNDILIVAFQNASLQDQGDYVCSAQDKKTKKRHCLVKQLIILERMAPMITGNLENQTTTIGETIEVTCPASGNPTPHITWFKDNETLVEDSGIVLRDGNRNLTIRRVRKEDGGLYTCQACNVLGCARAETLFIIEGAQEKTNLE

| IC50 (read off the curve) [1] [nM] | IC50 (read off the curve) [2] [nM] | fold reduction of binding affinity compared to VEGF164 [3] [fold] | Substance |
| --- | --- | --- | --- |
| 0.08 | 0.09 |  | VEGF164 double mutant R14A/R49A (from UniProt P15692 207-395) (ligand) |
| 0.08 | 0.2 |  | VEGF164 triple mutant R13A/R14A/R49A (from UniProt P15692 207-395) (ligand) |
|  |  | 115 | VEGF164 mutant R13A/R14A/R46A/R49A (from UniProt Q00731 27-190) (ligand) |
